# Assay results taken from patent publication US20020147170A1 (priority 2000, published 2002).
# B1: Leu325Glu CCK-BR mutant: human CCK-BR with point mutation Leu325Glu in the third intracellular loop (protein, UniProt P32239 1-447, looked up, variant L325E)
# Gastrin/cholecystokinin type …: MELLKLNRSVQGTGPGPGASLCRPGAPLLNSSSVGNLSCEPPRIRGAGTRELELAIRITLYAVIFLMSVGGNMLIIVVLGLSRRLRTVTNAFLLSLAVSDLLLAVACMPFTLLPNLMGTFIFGTVICKAVSYLMGVSVSVSTLSLVAIALERYSAICRPLQARVWQTRSHAARVIVATWLLSGLLMVPYPVYTVVQPVGPRVLQCVHRWPSARVRQTWSVLLLLLLFFIPGVVMAVAYGLISRELYLGLRFDGDSDSDSQSRVRNQGGLPGAVHQNGRCRPETGAVGEDSDGCYVQLPRSRPALELTALTAPGPGSGSRPTQAKELAKKRVVRMLLVIVVLFFLCWLPVYSANTWRAFDGPGAHRALSGAPISFIHLLSYASACVNPLVYCFMHRRFRQACLETCARCCPRPPRARPRALPDEDPPTPSIASLSRLSYTTISTLGPG
# Columns and labels:
# MC-4 receptor [1] = molecular target: T1, MC-4 receptor (Homo sapiens, UniProt P32245, D146M); assay: SMS-Luc luciferase reporter assay in HEK293 cells; type: cell-based
# T1 construct: expressed in transfected cells; host or cells: HEK293
# T1 sequence (P32245 whole entry D146M): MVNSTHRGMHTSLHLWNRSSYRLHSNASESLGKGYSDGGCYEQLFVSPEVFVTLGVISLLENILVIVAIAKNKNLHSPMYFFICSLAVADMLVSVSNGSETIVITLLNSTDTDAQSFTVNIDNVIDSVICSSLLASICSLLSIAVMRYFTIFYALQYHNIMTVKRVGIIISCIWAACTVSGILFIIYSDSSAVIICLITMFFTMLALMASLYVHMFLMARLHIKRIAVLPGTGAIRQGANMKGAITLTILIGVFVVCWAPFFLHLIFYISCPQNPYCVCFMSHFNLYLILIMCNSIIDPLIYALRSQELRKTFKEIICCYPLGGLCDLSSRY
# Protocol: Briefly, HEK293 cells were cotransfected, as described above, with an expression vector encoding either the wild-type MC-4 receptor or the Asp146Met mutant MC-4 receptor and the reporter construct, SMS-Luc. As a negative control, cells were transfected with SMS-Luc and pcDNA1. Basal and ligand (αMHS) induced activity of the negative control, the wild-type MC-4 receptor, and the Asp146Met mutant MC-4 receptor were measured using the luciferase assay described above.
# MC-4 receptor [2] = molecular target: T1, MC-4 receptor; assay: Basal level cAMP production; type: cell-based; details: FIG. 2
# Protocol: As but one example, ligand-dependent activation of the melanocortin-4 (MC-4) receptor is assayed by measuring an increase in cAMP production (Huszar et al., Cell 88:131-141, (1997)).
# rat mu opioid receptor = assay: CRE-Luc luciferase reporter assay with forskolin stimulation; type: cell-based; details: CRE-Luc luciferase reporter, FIG. 4
# Source text: (§1) The response element employed in this assay was the cAMP-response element (CRE), which is sensitive to Gαi mediated reductions in intracellular levels of cAMP. Signaling through the rat mu opioid receptor via Gαi inhibits adenylate cyclase, causing a decrease in intracellular cellular cAMP. Therefore, an increase in rat mu opioid receptor signaling induces a decrease in CRE mediated reporter activity.
# Mutation induced Gαi-mediated decreases in intracellular cAMP were, prior to the present invention, more often measured by 1) stimulating cells with forskolin, which causes receptor-independent activation of adenylate cyclase and generates an intracellular pool of cAMP; 2) stimulating the cells with ligand; and 3) measuring the ligand-induced, receptor-dependent Gαi-mediated decrease in the intracellular cAMP pool (e.g., using a radioimmunoassay (e.g., New England Nuclear, Boston, Mass.)). […] Specifically, cells transfected with a CRE-Luc reporter construct (Stratagene, La Jolla, Calif.) and an expression vector encoding either a wild-type or a mutant rat mu opioid receptor were stimulated with 0.5 μM or 2 μM forskolin to increase the intracellular pool of cAMP. The basal (and ligand-induced) level of receptor activity was then measured using a standard luciferase assay (see FIG. 4). Coexpression of the receptor of interest with a luciferase reporter gene construct allows one to measure light emission as a readout for basal signaling.
# This decrease in activity indicates an increase in the basal level activity of the mutant rat mu opioid receptor, because activation of the rat mu opioid receptor induces a decrease in CRE-mediated reporter activity (FIG. 4, compare 0.5 μM wild-type vs. 0.5 μM mutant and 2 μM wild-type vs. 2 μM mutant).
# CCK-BR [3] = molecular target: T2, CCK-BR (Homo sapiens, UniProt P32239, L325E); assay: Luciferase reporter assay (SMS-Luc, SRE-Luc) in HEK293 cells; type: cell-based
# T2 construct: expressed in transfected cells; host or cells: HEK293
# T2 sequence (P32239 1-447 L325E): B1 Gastrin/cholecystokinin type …
# Source text: as §1
# HEK293 cells were transfected (as described above) with SMS-Luc and an expression vector encoding any one of pcDNA1, wild-type CCK-BR, or Leu325Glu CCK-BR.
# CCK-BR [4] = details: COS-7 cells, absence of agonist; cited from earlier work
molecule,measurement,setting,value
Asp146Met mutant MC-4 receptor: melanocortin-4 receptor with Asp at position 146 (DRY motif) replaced by Met,basal level activity vs wild-type,MC-4 receptor [1],higher basal level activity than its wild-type counterpart
same,constitutive activity by basal level cAMP production,MC-4 receptor [2],constitutive activity
"C[C@@H](NC(=O)[C@@H](N)Cc1ccc(O)cc1)C(=O)NCC(=O)N(C)[C@@H](Cc1ccccc1)C(=O)NCCO [DAMGO, [D—Ala^2—MePhe^4, Gly-ol^5]enkephalin], reference compound]",effect of agonist stimulation of the receptor on forskolin induced activity,rat mu opioid receptor,decrease in forskolin induced activity
B1,basal activity detected by the SMS and SRE response elements,"CCK-BR [3]; SMS and SRE response elements, Gαq coupled, FIG. 3",increase in basal activity
same,basal level activity vs wild-type CCK-BR,"CCK-BR [3]; SMS-Luc, HEK293 cells",increased basal level activity
same,agonist-independent constitutive activity (inositol phosphate production),CCK-BR [4],triggers constitutive production of inositol phosphates to levels exceeding wild-type CCK-BR
